Reference: patent US20220064329A1 (Novo Nordisk, published 2022)

T1: recombinant human activated FVII (FVIIa) (human, UniProt P08709 61-212; P08709 213-466, ten glutamate residues of the Gla domain may be gamma-carboxylated)
T1 sequence 1: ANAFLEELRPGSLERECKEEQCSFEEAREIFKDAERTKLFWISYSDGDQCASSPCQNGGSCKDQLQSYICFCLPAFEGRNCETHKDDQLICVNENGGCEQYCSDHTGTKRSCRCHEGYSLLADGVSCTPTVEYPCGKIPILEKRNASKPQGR
T1 sequence 2: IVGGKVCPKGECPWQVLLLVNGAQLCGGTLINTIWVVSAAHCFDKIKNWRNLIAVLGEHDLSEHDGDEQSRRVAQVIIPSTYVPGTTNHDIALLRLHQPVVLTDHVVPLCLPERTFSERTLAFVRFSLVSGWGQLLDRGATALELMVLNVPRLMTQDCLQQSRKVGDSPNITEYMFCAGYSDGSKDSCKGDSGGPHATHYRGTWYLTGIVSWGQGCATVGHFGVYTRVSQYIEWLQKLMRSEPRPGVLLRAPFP

B1: biAb0242 (bispecific antibody, human IgG4 S228P, kappa)
heavy 1: QVQLQESGPGLVKPSQTLSLTCTVSGYSISSDSAWSWIRQPPGKGLEWIGYIQYSGSTNYNPSLKSRVTISRDTSKNQFSLKLSSVTAADTAVYYCARSVNYYGNSFAVGYWGQGTLVTVSSASTKGPSVFPLAPCSRSTSESTAALGCLVKDYFPEPVTVSWNSGALTSGVHTFPAVLQSSGLYSLSSVVTVPSSSLGTKTYTCNVDHKPSNTKVDKRVESKYGPPCPPCPAPEFLGGPSVFLFPPKPKDTLMISRTPEVTCVVVDVSQEDPEVQFNWYVDGVEVHNAKTKPREEQFNSTYRVVSVLTVLHQDWLNGKEYKCKVSNKGLPSSIEKTISKAKGQPREPQVYTLPPSQEEMTKNQVSLTCLVKGFYPSDIAVEWESNGQPENNYKTTPPVLDSDGSFLLYSKLTVDKSRWQEGNVFSCSVMHEALHNHYTQKSLSLSLGK
light 1: EIVLTQSPATLSLSPGERATLSCRASQGISDYLHWYQQKPGEAPRLLIKYTSQPATGIPARFSGSGSGTDFTLTISSLEPEDFAVYYCQNGHSFPLTFGQGTKLEIKRTVAAPSVFIFPPSDEQLKSGTASVVCLLNNFYPREAKVQWKVDNALQSGNSQESVTEQDSKDSTYSLSSTLTLSKADYEKHKVYACEVTHQGLSSPVTKSFNRGEC
heavy 2: not shown
light 2: SIVMTQTPKFLLVSAGDRVTITCKASQSVSNDVAWYQQKPGQSPKLLINYASSRYTGIPDRFTGSGYGTDFTFTISTVQAEDLAVYFCQQDYSSPYTFGGGTKLEIERTVAAPSVFIFPPSDEQLKSGTASVVCLLNNFYPREAKVQWKVDNALQSGNSQESVTEQDSKDSTYSLSSTLTLSKADYEKHKVYACEVTHQGLSSPVTKSFNRGEC
B2: biAb0243 (bispecific antibody, human IgG4 S228P, kappa)
heavy 1: B1 heavy 1
light 1: B1 light 1
heavy 2: not shown
light 2: DIQMTQTTSSLSASLGDRVTISCRASQDISNYLNWYQQKPDGTVKLLIFYTSRLHSGVPSRFSGSGSGTDYSLTISNLEPEDIATYYCQQDTKLPYTFGGGTKLEMKRTVAAPSVFIFPPSDEQLKSGTASVVCLLNNFYPREAKVQWKVDNALQSGNSQESVTEQDSKDSTYSLSSTLTLSKADYEKHKVYACEVTHQGLSSPVTKSFNRGEC
B3: biAb0244 (bispecific antibody, human IgG4 S228P, kappa)
heavy 1: QVQLKESGPGLVAPSQSLSITCTVSGFSLTDYGVSWIRQPPGKGLEWLGVIWGGGNTYNNSALKSRLSISKDNSKSQVFLKMNSLQADDTAMYFCAKHGYYGYVMDYWGQGTSVTVSSASTKGPSVFPLAPCSRSTSESTAALGCLVKDYFPEPVTVSWNSGALTSGVHTFPAVLQSSGLYSLSSVVTVPSSSLGTKTYTCNVDHKPSNTKVDKRVESKYGPPCPPCPAPEFLGGPSVFLFPPKPKDTLMISRTPEVTCVVVDVSQEDPEVQFNWYVDGVEVHNAKTKPREEQFNSTYRVVSVLTVLHQDWLNGKEYKCKVSNKGLPSSIEKTISKAKGQPREPQVYTLPPSQEEMTKNQVSLTCLVKGFYPSDIAVEWESNGQPENNYKTTPPVLDSDGSFLLYSKLTVDKSRWQEGNVFSCSVMHEALHNHYTQKSLSLSLGK
light 1: DIVMTQSHKIMSTLVGDRVSITCKASQDVDPAVAWYQQKPGQYPKLLIYWASTRHTGVPDRFTGSGSGTDFTLTISNVQSEDLADYFCQQYSKYPYTFGGGTKLEIKRTVAAPSVFIFPPSDEQLKSGTASVVCLLNNFYPREAKVQWKVDNALQSGNSQESVTEQDSKDSTYSLSSTLTLSKADYEKHKVYACEVTHQGLSSPVTKSFNRGEC
heavy 2: not shown
light 2: DIVMTQTPLSSPVTLGQPASISCRSSQSLVHRQGNTYFHWLQQRPGQPPRLLIYKVSNRFSGVPDRFSGSGAGTDFTLKISRVEAEDVGVYYCSQSTHVPYTFGQGTKLEIKRTVAAPSVFIFPPSDEQLKSGTASVVCLLNNFYPREAKVQWKVDNALQSGNSQESVTEQDSKDSTYSLSSTLTLSKADYEKHKVYACEVTHQGLSSPVTKSFNRGEC

Target: T1, recombinant human activated FVII (FVIIa)
Test: cell-based or functional assay

Compared with B1, B2 is higher in “Stimulation (fold): FXa generated by FVIIa with lipidated TLT-1 and 100 nM biAb, relative to free FVIIa” value: 21.8 fold for the first, 25.5 fold for the second.

In the case of B3, the “Stimulation (fold): FXa generated by FVIIa with lipidated TLT-1 and 100 nM biAb, relative to free FVIIa” value is reported as 2.7 fold.
